Reference: publication PMC6603201

Columns and labels:
Assay in all cases: SPR; CBP-FLAG immobilised by amine coupling on a CM5 chip (300-400 RU, 10 mM sodium acetate pH 4.5); serial dilutions of mouse chemokine flowed in triplicate for 3 min, 10 min dissociation; 25°C; HBS-EP buffer (20 mM HEPES, 150 mM NaCl, 3.4 mM EDTA, 0.005% Polysorbate 20, pH 7.4); Biacore X100; global fit with a 1:1 binding model
[1] = molecular target: PVNZ112.0-CBP (Parapoxvirus of red deer in New Zealand (PVNZ), strain RD86)
[2] = molecular target: PVNZ112.3-CBP (Parapoxvirus of red deer in New Zealand (PVNZ), strain RD86)
[3] = molecular target: PVNZ112.6-CBP (Parapoxvirus of red deer in New Zealand (PVNZ), strain RD86)

recombinant mouse CCL21 (from UniProt P84444 24-133) (ligand)
Kd [1]: 12.9 nM | koff [1]: 0.00682 s⁻¹ | kon [1]: 530000 M⁻¹ s⁻¹ | Kd [2]: 17.9 nM | koff [2]: 0.00251 s⁻¹ | kon [2]: 140000 M⁻¹ s⁻¹ | Kd [3]: 0.52 nM | koff [3]: 0.0103 s⁻¹ | kon [3]: 1.95e+07 M⁻¹ s⁻¹

recombinant mouse CCL2 (from UniProt P10148 24-148) (ligand)
Kd [3]: 0.03 nM | koff [3]: 0.00037 s⁻¹ | kon [3]: 1.18e+07 M⁻¹ s⁻¹

B1: recombinant mouse CCL22 (ligand)
chain: GPYGANVEDSICCQDYIRHPLPSRLVKEFFWTSKSCRKPGVVLITVKNRDICADPRQVWVKKLLHKLS
Kd [3]: 0.02 nM | koff [3]: 0.00047 s⁻¹ | kon [3]: 2.17e+07 M⁻¹ s⁻¹

B2: recombinant mouse CXCL2 (ligand)
chain: AVVASELRCQCLKTLPRVDFKNIQSLSVTPPGPHCAQTEVIATLKGGQKVCLDPEAPLVQKIIQKILNKGKAN
Kd [2]: 0.48 nM | koff [2]: 0.00087 s⁻¹ | kon [2]: 1.79e+06 M⁻¹ s⁻¹

B3: recombinant mouse XCL1 (ligand)
chain: VGTEVLEESSCVNLQTQRLPVQKIKTYIIWEGAMRAVIFVTKRGLKICADPEAKWVKAAIKTVDGRASTRKNMAETVPTGAQRSTSTAITLTG
Kd [1]: 30.8 nM | koff [1]: 0.00203 s⁻¹ | kon [1]: 60000 M⁻¹ s⁻¹

B4: recombinant mouse CXCL10 (ligand)
chain: IPLARTVRCNCIHIDDGPVRMRAIGKLEIIPASLSCPRVEIIATMKKNDEQRCLNPESKTIKNLMKAFSQKRSKRAP
Kd [1]: 7.29 nM | koff [1]: 0.00708 s⁻¹ | kon [1]: 970000 M⁻¹ s⁻¹ | Kd [2]: 82.5 nM | koff [2]: 0.0198 s⁻¹ | kon [2]: 240000 M⁻¹ s⁻¹ | Kd [3]: 10.4 nM | koff [3]: 0.00146 s⁻¹ | kon [3]: 140000 M⁻¹ s⁻¹

B5: recombinant mouse CXCL4 (ligand)
chain: VTSAGPEESDGDLSCVCVKTISSGIHLKHITSLEVIKAGRHCAVPQLIATLKNGRKICLDRQAPLYKKVIKKILES
Kd [1]: 25.9 nM | koff [1]: 0.0044 s⁻¹ | kon [1]: 170000 M⁻¹ s⁻¹ | Kd [2]: 0.97 nM | koff [2]: 0.00126 s⁻¹ | kon [2]: 1.29e+06 M⁻¹ s⁻¹ | Kd [3]: 0.59 nM | koff [3]: 0.011 s⁻¹ | kon [3]: 1.85e+07 M⁻¹ s⁻¹

B6: recombinant mouse CCL3 (ligand)
chain: APYGADTPTACCFSYSRKIPRQFIVDYFETSSLCSQPGVIFLTKRNRQICADSKETWVQEYITDLELNA
Kd [3]: 2.51 nM | koff [3]: 0.0358 s⁻¹ | kon [3]: 1.42e+07 M⁻¹ s⁻¹

B7: recombinant mouse CXCL1 (ligand)
chain: APIANELRCQCLQTMAGIHLKNIQSLKVLPSGPHCTQTEVIATLKNGREACLDPEAPLVQKIVQKMLKGVPK
Kd [2]: 0.66 nM | koff [2]: 0.00169 s⁻¹ | kon [2]: 2.54e+06 M⁻¹ s⁻¹

B8: recombinant mouse CCL19 (ligand)
chain: GANDAEDCCLSVTQRPIPGNIVKAFRYLLNEDGCRVPAVVFTTLRGYQLCAPPDQPWVDRIIRRLKKSSAKNKGNSTRRSPVS
Kd [2]: 15.8 nM | koff [2]: 0.00158 s⁻¹ | kon [2]: 10000 M⁻¹ s⁻¹ | Kd [3]: 0.13 nM | koff [3]: 0.00132 s⁻¹ | kon [3]: 1e+07 M⁻¹ s⁻¹
